According to US12358963B2, “Regenerative polypeptides and uses thereof” (Juvena Therapeutics, Inc., priority 2019, dated 2025):

Legend:
[1] = tested on: mouse myoblast cells; test: Mouse myoblast proliferation assay (EdU); assay type: cell-based; settings: for % EdU / Ave. + EdU Count: 48h; for % EdU: vehicle 3.14; for Ave. + EdU Count: FM 165
Experimental: FIG. 5A) Bar graph quantitation of % EdU+ mouse myoblast in response to BMP7. Myoblast were cultured 48h in the presence of BMP7 at indicated dose. Fresh media and BMP7 was added every 24h, followed by 2 hour EdU pulse and fixation. Mean∓S.D. Significant p-values (Vehicle˜BMP7 0.025 ug/mL: 1.21E-07, Vehicle˜BMP7 0.075 ug/mL: 8.05E-07, Vehicle˜BMP7 0.2255 ug/mL: 3.37E-03, Vehicle˜BMP7 0.9 ug/mL: 4.99E-02). FIG. 5B) Bar graph quantitation of % EdU+ human myoblast (person) in response to BMP7. Myoblast were cultured 72h in the presence of BMP7 at indicated dose. Cells were pulsed with EdU for 4 hours before fixation. Mean∓S.D. Significant p-values (Vehicle˜BMP7 1.56 ng/mL: 0.04). (*p<0.05 by Welch's One-Tailed T-test, n=2)
FIG. 6A) Bar graph of % EdU+ mouse myoblast cells compared to vehicle. Mouse myoblast were cultured 48h in the presence of indicated factors, followed by a 2 hour EdU pulse prior to fixation. Mean∓S.D. Significant p-values (FM˜BMP7: 0.008 ug/mL: 3.17E-02, FM˜Leucine: 300 uM BMP7: 0.008 ug/mL: 2.77E-03, FM˜Leucine: 100 uM BMP7: 0.008 ug/mL: 3.72E-05, FM˜Leucine: 900 uM BMP7: 0.008 ug/mL: 2.52E-03). (*p<0.05 by One-Way ANOVA Tukey Honest Significant Difference, n=2-6)
FIG. 7A: Bar graph of % EdU+ mouse myoblast cells compared to vehicle. Mouse myoblast were cultured 48h in the presence of indicated factors. EdU pulse and fixation. Mean∓S.D. (*p<0.05 by Student's One-Tailed T-Test of increased activity, n=2-6)
FIG. 10A) The suspension CHO cells were transiently transfected with either the empty control plasmid or the FGF17-hFcm encoding plasmid. After four days, the culture supernatants were collected and added into the culture of mouse myoblast cells for 48 hours, followed by a 2 hour EdU pulse prior to fixation. […] FIG. 10B) The suspension CHO cells were transiently transfected with the FGF17-hFcm encoding plasmid. After four days, the culture supernatants were collected and FGF17-hFcm was affinity-purified by Protein A membrane column. The purified FGF17-hFcm was added into the culture of mouse myoblast cells for 48 hours, followed by a 2 hour EdU pulse and fixation.
FIG. 11A: SDS-PAGE of culture supernatants from CHO cells transiently transfected with FGF17-hFcm or its mutants encoding plasmids (FGF17d181-216-hFcm, FGF17d204-216-hFcm, FGF17R204QK207Q-hFcm). The expressed FGF17-hFcm proteins and the mutant proteins were indicated by the white arrowheads. FIG. 11B) The culture supernatants from CHO cells transiently transfected with different FGF17 encoding plasmids were added into the culture of mouse myoblast cells for 48 hours followed by 2 hour EdU pulse and fixation.
FIG. 12A) SDS-PAGE of culture supernatants from CHO cells transiently transfected with FGF17-hFcm or its mutants encoding plasmids (FGF17d197-216-hFcm, FGF17K191AK193AS200A-hFcm). The expressed FGF17-hFcm proteins and the mutant proteins were indicated by the white arrowheads. FIG. 12B) The culture supernatants from CHO cells transiently transfected with different FGF17 encoding plasmids were added into the culture of mouse myoblast cells for 48 hours, followed by 2 hour EdU pulse and fixation.
FIG. 14A: Bar graph of % EdU+ mouse myoblast cells compared to vehicle. Myoblast were cultured 48h in the presence of indicated factors. Fresh media and factors were added every 24h, followed by 2 hour EdU pulse and fixation. Mean∓S.D. Table quantitation of % EdU and p-values (*p<0.05 by One-Way ANOVA Tukey Honest Significant Difference, n=2-6)
FIG. 15A: Bar graph of % EdU+ mouse myoblast cells compared to vehicle. Myoblast were cultured 48h in the presence of indicated factors. Fresh media and factors were added every 24h, followed by 2 hour EdU pulse and fixation. Mean∓S.D. Table quantitation of % EdU and p-values shown. (*p<0.05 by Student's One-Tailed T-Test of increased activity, n=2-6)
Bar graph of total EdU+ mouse myoblast cells compared per condition. Myoblast were cultured 48h in the presence of indicated factors. […]

[2] = tested on: aged human myoblast cell lines; test: Myogenic gene RNA expression in aged human myoblasts by real-time qPCR; assay type: cell-based
Experimental: Myogenic gene RNA expression (fold change to FM) in response to vehicle (FM) in mouse myoblast cell lines monitored by real-time qPCR. Myoblast were cultured 48h in fusion media. Mean±SD. n=3. (Y,Z) Differential induction of myogenic gene expression by FGF17 in human myoblast myoblasts. Quantitation table of myogenic gene RNA expression (fold change to FM-fusion media (DMEM+2% horse serum)) in response to FM or rh-FGF17 in aged human myoblast cell lines by real-time qPCR. Myoblast were cultured (B) 48 hours or (C) 72 hours in FM. Mean∓SD. n=3.
RNA was isolated from each well (RNeasy Mini Kit, Qiagen) and cDNA was obtained by reverse-transcription (High Capacity Reverse Transcription Kit, Thermo Fisher Scientific). Real-time quantitative PCR was performed using QuantStudio3 (Thermo Fisher).
Aged human myoblasts were cultured in well plates. […] Cells that had been cultured with IGF2 had increases in levels of MYOG at 48 hours and levels of MYOD at 72 hours.

[3] = tested on: 78 weeks old mice; test: BaCl2 muscle injury in old mice, intramuscular FGF17; assay type: in vivo, mouse; settings: FGF17 500 ng/mL intramuscular 2h and 48h after BaCl2 injury
Experimental: FIG. 16A) Experiment overview. Intramuscular injection of 1.2% of BaCl2 (7 ul/TA) was used to generate chemical injury in the TAs of 78 weeks old mice. FGF17 (500 ng/mL) was administered via intramuscular injection after 2h and 48h of muscle injury. FIG. 16B) Quantification of the regenerative index calculated as the number of newly regenerated fibers per mm 2 of injury area. Regenerated fibers were identified as fibers with central nuclei,****p<0.0001 (unpaired t-test). FIG. 16C) Histogram showing the fibrotic index calculated as the percentage of the fibrotic area. *p=0.0186 (unpaired t-test).

B1: FGF17: FGF17 polypeptide, FGFR agonist (protein, listed as Homo sapiens)
chain: TQGENHPSPNFNQYVRDQGAMTDQLSRRQIREYQLYSRTSGKHVQVTGRRISATAEDGNKFAKLIVETDTFGSRVRIKGAESEKYICMNKRGKLIGKPSGKSKDCVFTEIVLENNYTAFQNARHEGWFMAFTRQGRPRQASRSRQNQREAHFIKRLYQGQLPFPNHAEKQKQFEFVGSAPTRRTKRTRRPQPLT
B1 was tested, and the “% EdU” value ([1]; FGF17 0.0062 ug/mL) was 4.81%, the “Ave. + EdU Count” value ([1]; FGF17 0.01 ug/mL) was 476 and the “% EdU” value ([1]; FGF17 0.0125 ug/mL) was 3.02%. The “% Edu” value ([1]; FGF17 0.025 ug/mL, 48h (HA experiment), FM 11.162) was 17.870%, the “% EdU” value ([1]; FGF17 0.025 ug/mL) was 3.85% and the “Ave. + EdU Count” value ([1]; FGF17 0.1 ug/mL) was 1618. For the same molecule, the “MYOD1 RNA expression (fold change to FM)” value ([2]; 48 hr, FM 1.001) was 0.604, the “MYOG RNA expression (fold change to FM)” value ([2]; 48 hr, FM 1.013) was 2.353 and the “MYF5 RNA expression (fold change to FM)” value ([2]; 48 hr, FM 1.04) was 1.922. The “MYF5 RNA expression (fold change to FM)” value ([2]; 72 hr, FM 1.023) was 0.499, the “MYOD1 RNA expression (fold change to FM)” value ([2]; 72 hr, FM 1.055) was 1.627 and the “MYOG RNA expression (fold change to FM)” value ([2]; 72 hr, FM 1.092) was 13.124. For the same molecule, the Fibrotic index [3] was “reducing fibrosis” and the “Muscle regeneration (regenerative index)” value [3] was “Promoted the Regeneration of Muscle”.
